In patent publication US20100166708A1, “ANTIMICROBIAL AND ANTI-INFLAMMATORY THERAPIES AND COMPOSITIONS” (THE REGENTS OF THE UNIVERSITY OF CALIFORNIA, priority 2007, published 2010) one finds MIC of delta-haemolysin against GAS in the presence of 2 µM PSMdelta and deltaG^1(H2O) data, which are given here for 1 substance.

Assay [1] has as its target phenol soluble modulin-delta (Staphylococcus epidermidis). Put plainly: cell-based or functional assay.
Assay [2] concerns the target delta-haemolysin (Staphylococcus epidermidis). Put plainly: tryptophan fluorescence, urea dissociation of peptide complexes, 5 µM peptide.
Assay [3] has the same target. Put plainly: tryptophan fluorescence, urea dissociation of peptide complexes, 25 µM peptide.

Take delta-haemolysin (peptide): the MIC of delta-haemolysin against GAS in the presence of 2 µM PSMdelta in assay [1] was determined as 4 µM. Also, the deltaG^1(H2O) in assay [2] was 1.43 kcal/mol; in assay [3] it was 1.57 kcal/mol.
